The target in the test is 2019-nCoV RBD protein with C-terminal hexa-His tag (2019-nCoV (SARS-CoV-2), UniProt P0DTC2 319-541). In words: SPR, Biacore 8K, antibody captured on protein A chip, RBD as analyte.

Experimental: Surface plasmon resonance analysis was performed using Biacore 8K (Biacore Inc.).
Binding kinetic constants were calculated using BIAevaluation software 8K (Biacore, inc.) software.

B1: GH12 antibody (antibody, human IgG1, lambda, V domains shown)
VH: EVQLVESGGGLVQPGGSLRLSCAASGFTFSSYWMSWVRQAPGKGLEWVANIKQDGSEKYYVDSVKGRFTISRDNAKNSLYLQMNSLRAEDTAVYYCTRAGWVRGAFDIWGQGTMVTVSS
VL: NFMLTQPHSVSESPGKTVTISCTGSSGSIASNYVQWYQQRPGSAPTTVIYEDNQRPSGVPDRFSGSIDSSSNSASLTISGLKTEDEADYYCQSYDSSNLWVFGGGTKLTVLG
notes: also called human antibody GH12
Molecule B1 returned a dissociation constant Kd of 5.87 nM, a koff of 0.0173 s⁻¹ and a kon of 2.95e+06 M⁻¹ s⁻¹.

As usually defined, the Kd is the concentration at which binding is half-saturated. The koff is the rate constant with which the complex falls apart. A low value points to slow dissociation. The kon is the rate constant with which the complex forms.
